Target: Avastin™ (Bevacizumab)
Test: competition ELISA, inhibition of Avastin binding to coated humVEGF1-165

fold difference in affinity as compared to humVEGF1-165: < 5 fold
B1: oxid-humVEGF26-104 (designed binder)
chain: CHPIETLVDIFQEYPDEIEYIFKPSAVPLMRCGGACNDEGLECVPTEESNITMQIMRIKPHQGQHIGEMSFLQHNKCEC
modifications: N-terminal acetyl; C-terminal amide; oxidatively folded cystine knot (three disulfide bonds C1-C4, C2-C5, C3-C6)

— US20120231000A1
